Experimental data as given in the Immune Epitope Database (IEDB).

Legend:
Experiment in all cases: IEDB peptide-MHC binding, purified MHC/competitive/radioactivity; filed as Kd, often an IC50 or EC50 that approximates it; ≥ and ≤ were set here for values at or beyond the usual limits of such assays
HLA-A*11:01 = molecular target: HLA-A*11:01
HLA-A*03:01 = molecular target: HLA-A*03:01
HLA-A*68:01 = molecular target: HLA-A*68:01
HLA-A*31:01 = molecular target: HLA-A*31:01
HLA-A*33:01 = molecular target: HLA-A*33:01
[1] = source organism: SARS coronavirus Tor2
[2] = source organism: Vaccinia virus WR
[3] = source organism: Mammarenavirus juninense
[4] = source organism: Dengue virus 3 Martinique/1243/1999
[5] = source organism: Dengue virus 2 Jamaica/1409/1983
[6] = source organism: Dengue virus 4 Philippines/H241/1956
[7] = source organism: Murray valley encephalitis virus (strain MVE-1-51)
[8] = source organism: Mammarenavirus guanaritoense

NQLESKVSGK
Kd (HLA-A*11:01; [1]): 14.7 µM | Kd (HLA-A*03:01; [1]): 9.48 µM | Kd (HLA-A*68:01; [1]): 6.96 µM | Kd (HLA-A*31:01; [1]): ≥ 42.5 µM | Kd (HLA-A*33:01; [1]): ≥ 70 µM

NSYISNIIY
Kd (HLA-A*11:01; [2]): 2.49 µM | Kd (HLA-A*03:01; [2]): 7.48 µM | Kd (HLA-A*68:01; [2]): 0.597 µM | Kd (HLA-A*31:01; [2]): ≥ 23.7 µM | Kd (HLA-A*33:01; [2]): 11.7 µM

NVISSKISY
Kd (HLA-A*11:01; [2]): 0.482 µM | Kd (HLA-A*03:01; [2]): 0.651 µM | Kd (HLA-A*68:01; [2]): 0.439 µM | Kd (HLA-A*31:01; [2]): 4.96 µM | Kd (HLA-A*33:01; [2]): 6.45 µM

NYTKFWYVNH
Kd (HLA-A*11:01; [3]): ≥ 56.9 µM | Kd (HLA-A*03:01; [3]): ≥ 70 µM | Kd (HLA-A*68:01; [3]): 9.63 µM | Kd (HLA-A*31:01; [3]): 1 µM | Kd (HLA-A*33:01; [3]): 0.0545 µM

PLYIDISDVK
Kd (HLA-A*11:01; [2]): 9.17 µM | Kd (HLA-A*03:01; [2]): 0.156 µM | Kd (HLA-A*68:01; [2]): 1.42 µM | Kd (HLA-A*31:01; [2]): 9.5 µM | Kd (HLA-A*33:01; [2]): ≥ 56.3 µM

PSTVKTNLY
Kd (HLA-A*11:01; [2]): 6.77 µM | Kd (HLA-A*03:01; [2]): ≥ 40.3 µM | Kd (HLA-A*68:01; [2]): 7.98 µM | Kd (HLA-A*31:01; [2]): 6.12 µM | Kd (HLA-A*33:01; [2]): 3.68 µM

QAIEPSGNNY
Kd (HLA-A*11:01; [2]): 4.82 µM | Kd (HLA-A*03:01; [2]): ≥ 70.1 µM | Kd (HLA-A*68:01; [2]): 0.692 µM | Kd (HLA-A*31:01; [2]): 3.44 µM | Kd (HLA-A*33:01; [2]): ≥ 70 µM

QMAPVSAMVR
Kd (HLA-A*11:01; [1]): 1.08 µM | Kd (HLA-A*03:01; [1]): 0.527 µM | Kd (HLA-A*68:01; [1]): 0.157 µM | Kd (HLA-A*31:01; [1]): 1.02 µM | Kd (HLA-A*33:01; [1]): 7.32 µM

QMLTSGEYK
Kd (HLA-A*11:01; [2]): 0.00367 µM | Kd (HLA-A*03:01; [2]): 0.00695 µM | Kd (HLA-A*68:01; [2]): 0.266 µM | Kd (HLA-A*31:01; [2]): 0.0283 µM | Kd (HLA-A*33:01; [2]): 7.28 µM

QQVVDADSK
Kd (HLA-A*11:01; [1]): ≥ 26.3 µM | Kd (HLA-A*03:01; [1]): ≥ 28 µM | Kd (HLA-A*68:01; [1]): ≥ 65.8 µM | Kd (HLA-A*31:01; [1]): ≥ 77.9 µM | Kd (HLA-A*33:01; [1]): ≥ 77.7 µM

QTCAGVIEY
Kd (HLA-A*11:01; [2]): 0.134 µM | Kd (HLA-A*03:01; [2]): 3.2 µM | Kd (HLA-A*68:01; [2]): 1.76 µM | Kd (HLA-A*31:01; [2]): 18.9 µM | Kd (HLA-A*33:01; [2]): ≥ 77.7 µM

RLISMMGFK
Kd (HLA-A*11:01; [1]): 0.0222 µM | Kd (HLA-A*03:01; [1]): 0.00318 µM | Kd (HLA-A*68:01; [1]): 0.716 µM | Kd (HLA-A*31:01; [1]): 0.104 µM | Kd (HLA-A*33:01; [1]): ≥ 77.7 µM

RQTVSRFKK
Kd (HLA-A*11:01; [2]): 0.0407 µM | Kd (HLA-A*03:01; [2]): 0.0397 µM | Kd (HLA-A*68:01; [2]): 4.63 µM | Kd (HLA-A*31:01; [2]): 0.0131 µM | Kd (HLA-A*33:01; [2]): 6.56 µM

RWLWGFLSR
Kd (HLA-A*31:01; source organism: Dengue virus 1 Singapore/S275/1990): 0.00145 µM

SLRTTTVSGK
Kd (HLA-A*03:01; [4]): 0.00578 µM

SSMINGVVK
Kd (HLA-A*11:01; [4]): 0.0129 µM

TIGTTHFQR
Kd (HLA-A*68:01; [5]): 0.0184 µM | Kd (HLA-A*31:01; [5]): 0.0143 µM

TLFVEECLR
Kd (HLA-A*68:01; [6]): 0.0301 µM | Kd (HLA-A*33:01; [6]): 0.0863 µM

TTAKEVALLR
Kd (HLA-A*68:01; [6]): 0.0733 µM

VASAGISYK
Kd (HLA-A*11:01; [6]): 0.0374 µM | Kd (HLA-A*03:01; [6]): 0.0284 µM

VQTKPGIFK
Kd (HLA-A*11:01; [7]): 0.435 µM | Kd (HLA-A*03:01; [7]): 0.274 µM

VTEFRRTAIH
Kd (HLA-A*03:01; [8]): ≥ 33.1 µM | Kd (HLA-A*68:01; [8]): 15.3 µM | Kd (HLA-A*31:01; [8]): 10.7 µM | Kd (HLA-A*33:01; [8]): 5.85 µM

WTLMYFHRR
Kd (HLA-A*31:01; [5]): 0.00149 µM | Kd (HLA-A*33:01; [5]): 0.00656 µM
